Experimental data: paper PMC3145769

What was measured:
Assay in all cases: co-IP; anti-Flag M2 affinity gel on extracts of NIH3T3 cells transfected with 3xFlag Cyclin A2 alleles; endogenous partners detected by Western blot; densitometry (ImageQuantTL) normalised to immunoprecipitated Cyclin A2, percent of WT; repeated 5 times
[1] = target: Cyclin A2 K256A, C-terminally fused to 3 Flag tags (mouse) (UniProt P51943)
[2] = target: Cyclin A2 L204A, C-terminally fused to 3 Flag tags (mouse) (UniProt P51943)
[3] = target: Cyclin A2 E210Q, C-terminally fused to 3 Flag tags (mouse) (UniProt P51943)
[4] = target: Cyclin A2 L282R, C-terminally fused to 3 Flag tags (mouse) (UniProt P51943)
[5] = target: Cyclin A2 Double (W207L, E210Q), C-terminally fused to 3 Flag tags (mouse) (UniProt P51943)
[6] = target: Cyclin A2 WT, C-terminally fused to 3 Flag tags (mouse) (UniProt P51943)
[7] = target: Cyclin A2 M200A, C-terminally fused to 3 Flag tags (mouse) (UniProt P51943)
[8] = target: Cyclin A2 E285A, C-terminally fused to 3 Flag tags (mouse) (UniProt P51943)
[9] = target: Cyclin A2 D171A, C-terminally fused to 3 Flag tags (mouse) (UniProt P51943)
[10] = target: Cyclin A2 E180A, C-terminally fused to 3 Flag tags (mouse) (UniProt P51943)
[11] = target: Cyclin A2 W207A, C-terminally fused to 3 Flag tags (mouse) (UniProt P51943)
Cyclin A2 W207A, C-terminally fused to 3 Flag tags (mouse), sequence (P51943 whole entry W207A, the tested form may be a part): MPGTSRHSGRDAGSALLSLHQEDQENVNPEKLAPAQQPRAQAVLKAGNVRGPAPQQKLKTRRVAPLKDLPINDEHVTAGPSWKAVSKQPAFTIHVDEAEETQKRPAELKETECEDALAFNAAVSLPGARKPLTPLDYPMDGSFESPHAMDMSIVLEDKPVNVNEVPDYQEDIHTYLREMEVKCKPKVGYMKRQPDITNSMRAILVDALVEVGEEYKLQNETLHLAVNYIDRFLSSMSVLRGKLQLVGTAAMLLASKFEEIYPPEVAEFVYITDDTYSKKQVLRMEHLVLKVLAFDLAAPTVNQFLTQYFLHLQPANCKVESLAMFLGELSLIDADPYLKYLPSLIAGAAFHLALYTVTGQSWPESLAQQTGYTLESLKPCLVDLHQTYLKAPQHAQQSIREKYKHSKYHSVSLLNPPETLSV

Cyclin A2 K256A, C-terminally fused to 3 Flag tags (mouse), sequence (P51943 whole entry K256A, the tested form may be a part): as the sequence (P51943 whole entry W207A, the tested form may be a part) above, with A207W, K256A counted along it
Cyclin A2 E285A, C-terminally fused to 3 Flag tags (mouse), sequence (P51943 whole entry E285A, the tested form may be a part): as the sequence (P51943 whole entry W207A, the tested form may be a part) above, with A207W, E285A counted along it
Cyclin A2 M200A, C-terminally fused to 3 Flag tags (mouse), sequence (P51943 whole entry M200A, the tested form may be a part): as the sequence (P51943 whole entry W207A, the tested form may be a part) above, with M200A, A207W counted along it
Cyclin A2 E210Q, C-terminally fused to 3 Flag tags (mouse), sequence (P51943 whole entry E210Q, the tested form may be a part): as the sequence (P51943 whole entry W207A, the tested form may be a part) above, with A207W, E210Q counted along it
Cyclin A2 Double (W207L, E210Q), C-terminally fused to 3 Flag tags (mouse), sequence (P51943 whole entry W207L/E210Q, the tested form may be a part): as the sequence (P51943 whole entry W207A, the tested form may be a part) above, with A207L, E210Q counted along it
Cyclin A2 E180A, C-terminally fused to 3 Flag tags (mouse), sequence (P51943 whole entry E180A, the tested form may be a part): as the sequence (P51943 whole entry W207A, the tested form may be a part) above, with E180A, A207W counted along it
Cyclin A2 L204A, C-terminally fused to 3 Flag tags (mouse), sequence (P51943 whole entry L204A, the tested form may be a part): as the sequence (P51943 whole entry W207A, the tested form may be a part) above, with L204A, A207W counted along it
Cyclin A2 WT, C-terminally fused to 3 Flag tags (mouse), sequence (P51943 whole entry, the tested form may be a part): as the sequence (P51943 whole entry W207A, the tested form may be a part) above, with A207W counted along it
Cyclin A2 L282R, C-terminally fused to 3 Flag tags (mouse), sequence (P51943 whole entry L282R, the tested form may be a part): as the sequence (P51943 whole entry W207A, the tested form may be a part) above, with A207W, L282R counted along it
Cyclin A2 D171A, C-terminally fused to 3 Flag tags (mouse), sequence (P51943 whole entry D171A, the tested form may be a part): as the sequence (P51943 whole entry W207A, the tested form may be a part) above, with D171A, A207W counted along it

Substance | percent co-precipitated relative to WT [1] [%] | percent co-precipitated relative to WT [2] [%] | percent co-precipitated relative to WT [3] [%] | percent co-precipitated relative to WT [4] [%] | percent co-precipitated relative to WT [5] [%] | percent co-precipitated relative to WT [6] [%] | percent co-precipitated relative to WT [7] [%] | percent co-precipitated relative to WT [8] [%] | percent co-precipitated relative to WT [9] [%] | percent co-precipitated relative to WT [10] [%] | percent co-precipitated relative to WT [11] [%]
CDK2 (endogenous, NIH3T3) (from UniProt P97377 1-346) | 68.2 | – | – | – | – | – | – | – | – | – | –
CDK2 (endogenous, NIH3T3) (from UniProt P97377 1-346) (enzyme) | – | 72.4 | 99.6 | 81.5 | 66.4 | 100 | 86.4 | 41.7 | 100 | 17.7 | 1.2
